For the test, the target named is GST–Rac1a (full-length Dictyostelium Rac1a as a GST fusion, GTP-bound form) (Dictyostelium) (UniProt P34144).

Consider two substances from paper PMC9270954.

Take “GST–GAP-RΔA (GAP domain of CARMIL-GAP with the conserved arginine changed to alanine, as a GST fusion) (domain or fragment)”: the fold activation of the GTP hydrolysis rate of GST–Rac1a (10 µM) by 2.5 µM GST–GAP-RΔA, 10 min at 20°C, free phosphate by CytoPhos; Rac1a alone normalized to 1.0 was determined as 1.74 fold.

Take “GST–GAP (isolated GAP domain of CARMIL-GAP, residues 715–858, as a GST fusion) (domain or fragment)”: the fold activation of the GTP hydrolysis rate of GST–Rac1a (10 µM) by 2.5 µM GST–GAP, 10 min at 20°C, free phosphate by CytoPhos; Rac1a alone normalized to 1.0 came to 5.8 fold.
